Data from patent US20240052042A1 (Novartis, published 2024).

T1: human NPR1 on CHO-K1 cells (human, UniProt P16066 33-1061)
T1 sequence: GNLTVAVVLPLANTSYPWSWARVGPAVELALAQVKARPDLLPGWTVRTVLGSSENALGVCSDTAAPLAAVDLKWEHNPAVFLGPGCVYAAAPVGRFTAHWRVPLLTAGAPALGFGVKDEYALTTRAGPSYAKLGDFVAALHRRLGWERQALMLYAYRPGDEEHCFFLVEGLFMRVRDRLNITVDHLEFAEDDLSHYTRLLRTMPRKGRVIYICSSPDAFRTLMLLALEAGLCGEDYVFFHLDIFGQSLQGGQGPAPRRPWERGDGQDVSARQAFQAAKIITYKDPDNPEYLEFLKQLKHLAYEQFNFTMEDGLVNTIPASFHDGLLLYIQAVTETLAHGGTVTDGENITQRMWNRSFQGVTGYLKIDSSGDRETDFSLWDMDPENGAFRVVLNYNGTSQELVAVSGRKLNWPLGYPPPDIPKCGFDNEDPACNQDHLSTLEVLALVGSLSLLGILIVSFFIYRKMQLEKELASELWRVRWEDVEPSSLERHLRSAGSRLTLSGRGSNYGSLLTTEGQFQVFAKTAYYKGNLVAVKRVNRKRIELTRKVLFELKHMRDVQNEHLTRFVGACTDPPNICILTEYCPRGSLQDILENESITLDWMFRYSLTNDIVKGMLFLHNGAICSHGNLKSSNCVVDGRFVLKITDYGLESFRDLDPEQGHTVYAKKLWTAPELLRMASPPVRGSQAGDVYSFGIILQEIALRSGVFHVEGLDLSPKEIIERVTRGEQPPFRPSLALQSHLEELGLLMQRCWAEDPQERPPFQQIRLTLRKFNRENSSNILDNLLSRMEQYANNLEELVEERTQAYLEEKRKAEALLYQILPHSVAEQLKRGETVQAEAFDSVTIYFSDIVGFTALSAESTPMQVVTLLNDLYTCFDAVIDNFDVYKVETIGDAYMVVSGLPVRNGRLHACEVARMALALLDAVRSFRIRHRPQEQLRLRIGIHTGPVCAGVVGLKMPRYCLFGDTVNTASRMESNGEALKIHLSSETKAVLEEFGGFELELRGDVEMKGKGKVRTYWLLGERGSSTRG

T2: human NPR3 (counter target) (human, UniProt P17342 27-481, limits assumed)
T2 construct: Pannings used hNPR3-hFc; also called hNPR3; hNPR3-hFc
T2 sequence (looked up): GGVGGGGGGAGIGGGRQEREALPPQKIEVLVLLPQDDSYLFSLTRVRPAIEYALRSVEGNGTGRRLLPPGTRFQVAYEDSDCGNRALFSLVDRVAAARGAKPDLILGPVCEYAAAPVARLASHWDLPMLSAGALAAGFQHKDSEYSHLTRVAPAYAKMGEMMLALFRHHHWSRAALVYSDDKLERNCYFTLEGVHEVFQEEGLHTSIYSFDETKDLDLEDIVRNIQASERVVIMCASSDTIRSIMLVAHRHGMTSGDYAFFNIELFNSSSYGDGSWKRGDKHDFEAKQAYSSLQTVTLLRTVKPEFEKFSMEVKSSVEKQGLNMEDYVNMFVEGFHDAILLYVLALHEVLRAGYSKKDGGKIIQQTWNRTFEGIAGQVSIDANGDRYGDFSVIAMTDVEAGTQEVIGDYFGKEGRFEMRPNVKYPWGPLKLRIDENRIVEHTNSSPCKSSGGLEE

T3: rat NPR1 (rNPR1) (rat, UniProt P18910 29-469, limits assumed)
T3 construct: Soluble antigen
T3 sequence: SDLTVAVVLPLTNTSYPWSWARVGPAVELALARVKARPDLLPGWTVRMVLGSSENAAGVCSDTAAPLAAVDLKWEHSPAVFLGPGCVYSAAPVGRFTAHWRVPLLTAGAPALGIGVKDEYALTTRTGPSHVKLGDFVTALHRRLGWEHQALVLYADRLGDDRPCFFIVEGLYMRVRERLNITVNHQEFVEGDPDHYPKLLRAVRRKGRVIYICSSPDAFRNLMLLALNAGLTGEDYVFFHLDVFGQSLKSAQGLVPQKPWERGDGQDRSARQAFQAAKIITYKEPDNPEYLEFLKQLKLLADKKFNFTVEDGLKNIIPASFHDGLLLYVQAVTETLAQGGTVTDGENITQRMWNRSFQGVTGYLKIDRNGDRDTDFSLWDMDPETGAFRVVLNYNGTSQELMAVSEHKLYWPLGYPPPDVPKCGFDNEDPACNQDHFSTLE

T4: human NPR1 on CHO-K1 cells in the presence of ANP (human, UniProt P01160 124-151)
T4 construct: also called hNPR1 CHO K1 + 100 nM ANP
T4 sequence: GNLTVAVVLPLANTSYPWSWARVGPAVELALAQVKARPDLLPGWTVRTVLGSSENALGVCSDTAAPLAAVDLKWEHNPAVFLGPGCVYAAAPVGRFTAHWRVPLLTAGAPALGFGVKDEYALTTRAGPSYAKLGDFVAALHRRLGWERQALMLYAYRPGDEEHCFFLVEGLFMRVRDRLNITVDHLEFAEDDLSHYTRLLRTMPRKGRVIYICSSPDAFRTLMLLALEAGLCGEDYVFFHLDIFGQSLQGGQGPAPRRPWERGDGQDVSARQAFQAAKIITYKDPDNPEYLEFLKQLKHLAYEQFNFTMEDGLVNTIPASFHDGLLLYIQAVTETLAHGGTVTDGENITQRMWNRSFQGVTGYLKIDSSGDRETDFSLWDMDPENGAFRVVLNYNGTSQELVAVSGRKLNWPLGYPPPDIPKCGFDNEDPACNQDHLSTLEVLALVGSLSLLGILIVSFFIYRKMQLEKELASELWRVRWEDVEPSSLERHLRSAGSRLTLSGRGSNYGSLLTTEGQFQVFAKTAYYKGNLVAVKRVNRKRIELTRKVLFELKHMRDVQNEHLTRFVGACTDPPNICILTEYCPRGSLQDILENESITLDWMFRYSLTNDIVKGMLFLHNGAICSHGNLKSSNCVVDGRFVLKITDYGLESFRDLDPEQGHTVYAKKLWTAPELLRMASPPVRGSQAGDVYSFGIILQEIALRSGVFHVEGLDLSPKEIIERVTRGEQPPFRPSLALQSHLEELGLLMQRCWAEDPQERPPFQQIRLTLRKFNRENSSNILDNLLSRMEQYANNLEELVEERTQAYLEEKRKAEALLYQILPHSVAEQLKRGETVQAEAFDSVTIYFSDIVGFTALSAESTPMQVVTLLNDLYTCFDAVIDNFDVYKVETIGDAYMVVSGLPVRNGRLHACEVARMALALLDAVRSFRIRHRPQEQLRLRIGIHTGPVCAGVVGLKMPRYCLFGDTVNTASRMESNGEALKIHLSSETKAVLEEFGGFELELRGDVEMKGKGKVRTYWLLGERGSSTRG
T4 sequence (peptide): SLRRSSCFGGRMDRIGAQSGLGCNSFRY

T5: rNPR1-ANP complex (rat, UniProt P01160 124-151 (human entry), limits assumed)
T5 construct: rNPR1 antigen in the presence of ANP; also called rNPR1 + 100 nM ANP
T5 sequence: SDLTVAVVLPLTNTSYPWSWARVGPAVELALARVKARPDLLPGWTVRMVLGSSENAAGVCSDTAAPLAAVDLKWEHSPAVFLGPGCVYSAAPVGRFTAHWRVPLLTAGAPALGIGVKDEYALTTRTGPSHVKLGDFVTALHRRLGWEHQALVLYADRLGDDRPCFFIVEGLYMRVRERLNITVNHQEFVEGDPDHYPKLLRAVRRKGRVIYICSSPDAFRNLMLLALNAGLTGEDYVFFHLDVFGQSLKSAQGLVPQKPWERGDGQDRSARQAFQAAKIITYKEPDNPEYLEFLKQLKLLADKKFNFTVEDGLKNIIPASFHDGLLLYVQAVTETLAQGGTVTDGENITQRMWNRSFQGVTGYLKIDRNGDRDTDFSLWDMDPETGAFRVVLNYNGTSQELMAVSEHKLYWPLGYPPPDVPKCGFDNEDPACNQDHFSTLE
T5 sequence (peptide): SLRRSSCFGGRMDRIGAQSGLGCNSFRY

T6: rNPR1-ANP complex (rat)
T6 sequence: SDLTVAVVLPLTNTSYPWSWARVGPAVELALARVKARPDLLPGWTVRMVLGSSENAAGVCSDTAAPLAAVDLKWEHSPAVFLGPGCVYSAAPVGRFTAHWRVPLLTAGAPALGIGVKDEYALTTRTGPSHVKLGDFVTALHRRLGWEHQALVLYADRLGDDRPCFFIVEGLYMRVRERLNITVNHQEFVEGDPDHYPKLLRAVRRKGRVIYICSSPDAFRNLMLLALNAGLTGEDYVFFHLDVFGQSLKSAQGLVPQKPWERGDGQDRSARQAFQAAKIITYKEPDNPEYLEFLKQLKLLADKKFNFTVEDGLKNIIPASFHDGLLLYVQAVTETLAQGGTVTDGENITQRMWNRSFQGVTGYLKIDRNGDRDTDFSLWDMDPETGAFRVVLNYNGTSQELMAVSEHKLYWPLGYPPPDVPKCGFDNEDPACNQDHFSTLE
T6 sequence (peptide): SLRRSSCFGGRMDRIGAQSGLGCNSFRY


How the values were obtained:
[1] = target: T1, human NPR1 on CHO-K1 cells; experiment: cell-based or functional assay
[2] = target: T2, human NPR3 (counter target); experiment: ELISA, IgG titrated on coated antigen, fluorescence [Cont.]
rat NPR1 (rNPR1) = target: T3, rat NPR1 (rNPR1); experiment: as above
[3] = target: T4, human NPR1 on CHO-K1 cells in the …; experiment: flow cytometry, hNPR1 CHO-K1 cells, IgG
[4] = target: T1, human NPR1 on CHO-K1 cells; experiment: flow cytometry, hNPR1 CHO-K1 cells, IgG
rNPR1-ANP complex = target: T5, rNPR1-ANP complex; experiment: ELISA, 1 µM IgG; parameters: unit not given here
rNPR1-ANP complex (rat) = target: T6, rNPR1-ANP complex (rat); experiment: ELISA, 1 µM IgG

Row | cGMP conc [nM] at 1 µM IgG, +0.075 nM ANP [1] | cGMP conc [nM] at 1 µM IgG, without ANP [1] | binding result [2] | binding result (rat NPR1 (rNPR1)) | flow cytometry S/BG at 1 µM IgG [3] | flow cytometry S/BG at 1 µM IgG [4] | ELISA binding at 1 µM IgG (rNPR1-ANP complex) | ELISA binding at 1 µM IgG (rNPR1-ANP complex (rat)) | Binder
1 | 9 nM | 4 nM | no binding (tested: 1000 nM) | no binding (tested: 1000 nM) | 44 S/BG | 8 S/BG | 3 | – | YY07 (IgG format) (antibody, V domains shown, also called YY07_LALA) VH: EVQLVQSGAEVKKPGESLKISCKGSGYSFTSYWISWVRQMPGKGLEWMGIIYPGTSYTRYSPSFQGQVTISADKSISTAYLQWSSLKASDTAMYYCARGSLPGLLGFDHWGQGTLVTVSS VL: QSVLTQPPSVSGAPGQRVTISCTGSSSNIGAGYDVHWYQQLPGTAPKLLIYGNSNRPNGVPDRFSGSKSGTSASLAITGLQAEDEADYYCQSYDSPTSSSVFGGGTKLTVLG
2 | 15 nM | 12 nM | – | – | 18 S/BG | 26 S/BG | – | 4 | YY06 (IgG format) (antibody, V domains shown, also called YY06_LALA) VH: EVQLLESGGGLVQPGGSLRLSCAASGFTFSSYAISWVRQAPGKGLEWVSAISGSGGSTYYAESVKGRFTISRDNSKNTLYLQMNSLRAEDTAVYYCARPYLGDRRSYGFDHWGQGTLVTVSS VL: QSALTQPASVSGSPGQSITISCTGTSSDVGSYNLVSWYQQHPGKAPKLMIYEGSKRPSGVSNRFSGSKSGNTASLTISGLQAEDEADYYCSSYGFHIVVVVFGGGTKLTVLG
